# B1: Thermus thermophilus ClpB, full-length (natural protein)
# chain: not shown
# B2: ΔNClpB, Thermus thermophilus ClpB lacking the N-terminal domain (domain or fragment)
# chain: not shown
# Biological target: the molecule itself
# Assay: native gel or EMSA
protein,measurement,value
B1,binding result,binds
B2,binding result,binds

# Source: doi:10.1101/2020.09.13.295345 (bioRxiv, 2020)
